Patent US20200190473A1, “Plasmacytoid Dendritic Cells Having Immune Tolerance, and Method for Producing Same” (QURATIS INC., priority 2017, published 2020)

Assays:
TLR2 receptor [1] = assay type: binding, mouse; settings: 5 μg/ml, 2 hours; compared to untreated group
TLR2 receptor [2] = target: TLR2 receptor (Mus musculus, UniProt Q9QUN7); assay type: binding
[3] = test system: plasmacytoid dendritic cells; assay type: cell-based, mouse; settings: pDC differentiated with TLR agonist on day 3, stimulated with ODN1826 (1 μg/ml), 24 hours, ELISA; vs conventional pDC

Sequence of TLR2 receptor (Mus musculus, UniProt Q9QUN7) (Q9QUN7 25-784): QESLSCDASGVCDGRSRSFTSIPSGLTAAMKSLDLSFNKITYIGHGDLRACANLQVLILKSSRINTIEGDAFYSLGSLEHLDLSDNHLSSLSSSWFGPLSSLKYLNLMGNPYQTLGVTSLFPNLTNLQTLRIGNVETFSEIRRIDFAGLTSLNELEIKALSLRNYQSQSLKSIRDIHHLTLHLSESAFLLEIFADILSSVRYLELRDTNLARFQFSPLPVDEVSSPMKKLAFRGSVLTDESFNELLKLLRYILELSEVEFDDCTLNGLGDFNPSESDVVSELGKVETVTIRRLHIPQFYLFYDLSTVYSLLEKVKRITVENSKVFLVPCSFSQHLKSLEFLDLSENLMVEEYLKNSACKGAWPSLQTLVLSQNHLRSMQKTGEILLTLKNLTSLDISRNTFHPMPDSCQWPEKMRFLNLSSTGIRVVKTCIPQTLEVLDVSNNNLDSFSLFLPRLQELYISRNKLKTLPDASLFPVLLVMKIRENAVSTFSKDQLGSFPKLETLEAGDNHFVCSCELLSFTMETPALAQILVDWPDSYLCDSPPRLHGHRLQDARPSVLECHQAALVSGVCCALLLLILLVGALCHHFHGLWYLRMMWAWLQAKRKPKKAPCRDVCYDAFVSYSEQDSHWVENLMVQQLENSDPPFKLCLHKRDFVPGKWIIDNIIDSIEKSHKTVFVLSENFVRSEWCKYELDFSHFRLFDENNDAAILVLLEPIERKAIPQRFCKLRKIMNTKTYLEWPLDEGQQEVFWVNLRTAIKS

B1: Rv1411c protein: His-labeled protein derived from M tuberculosis, confirmed as TLR2 agonist (protein, UniProt P9WK45 27-236, looked up)
Lipoarabinomannan carrier …: CSSGSKPSGGPLPDAKPLVEEATAQTKALKSAHMVLTVNGKIPGLSLKTLSGDLTTNPTAATGNVKLTLGGSDIDADFVVFDGILYATLTPNQWSDFGPAADIYDPAQVLNPDTGLANVLANFADAKAEGRDTINGQNTIRISGKVSAQAVNQIAPPFNATQPVPATVWIQETGDHQLAQAQLDRGSGNSVQMTLSKWGEKVQVTKPPVS
modifications: His tag
notes: His-labeled protein derived from M tuberculosis, confirmed as TLR2 agonist
With B1 the “binding strength to TLR2 knockout-derived dendritic cells (TLR2−/−)” value (TLR2 receptor [1]) was “the same as that in the untreated experimental group”, the “binding to TLR2 receptor” value (TLR2 receptor [2]) was “binds to the TLR2 receptor” and the “binding to wild-type dendritic cells (WT)” value (TLR2 receptor [2]) was “increased binding”. For the same molecule, the “expression level of IFN-α” value [3] was “drastically reduced in a concentration-dependent manner”, the “expression level of IFN-β” value [3] was “drastically reduced in a concentration-dependent manner” and the “expression level of IL-10” value [3] was “marked increase in a concentration-dependent manner”. The “expression level of IL-12p70” value [3] was “drastically reduced in a concentration-dependent manner” and the “expression level of TNF-α” value [3] was “drastically reduced in a concentration-dependent manner”.
